The values below are quoted from earlier work in publication PMC6784060.

By Kd is commonly meant the free concentration of one partner at which half of the binding sites on the other are occupied at equilibrium, for simple one-to-one binding.

The target in the data set is Beclin-1 BH3 (Homo sapiens) (UniProt Q14457).
Sequence of UniProt Q14457 (Q14457 107-127): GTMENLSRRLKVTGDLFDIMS

As for Bcl-xL (from UniProt Q07817), the equilibrium dissociation constant (Kd) is 1700 nM.
